Experimental data from patent publication US20210163536A1 (IPSEN PHARMA S A S, published 2021).

B1: Hydantoin(C(O)-(Gly-Arg))-cyclo(Cys-Glu-His-D-Phe-Arg-Trp-Cys)-NH2 (peptide)
peptide: CEHXRWC
modifications: hydantoin ring from Gly 1, C(O) and the amino group of Arg 2; D-Phe 6; disulfide Cys 3-Cys 9 (cyclo); C-terminal amide
notes: residue 6 here is D-Phe; also called Compound E
B2: Hydantoin(C(O)-(Gly-Gly))-cyclo(Cys-Glu-His-D-Phe-Arg-Trp-Cys)-NH2 (peptide)
peptide: CEHXRWC
modifications: not fully specified; hydantoin ring from Gly 1, C(O) and the amino group of Gly 2; D-Phe 6; disulfide Cys 3-Cys 9 (cyclo); C-terminal amide
notes: residue 6 here is D-Phe
B3: cyclo[Hydantoin(C(O)-(Gly-Cys))-Glu-His-D-Phe-Arg-Trp-Cys]-NH2 (peptide)
peptide: EHXRWC
modifications: not fully specified; hydantoin ring from Gly 1, C(O) and the amino group of Cys 2; D-Phe 5; disulfide Cys 2-Cys 8 (cyclo); C-terminal amide
B4: cyclo[Hydantoin(C(O)-(Ile-Cys))-D-Ala-His-D-Phe-Arg-Trp-Cys]-NH2 (peptide)
peptide: XHXRWC
modifications: hydantoin ring from Ile 1, C(O) and the amino group of Cys 2; D-Ala 3; D-Phe 5; disulfide Cys 2-Cys 8 (cyclo); C-terminal amide
B5: Hydantoin(C(O)-(Arg-Gly))-cyclo(Cys-Glu-His-D-Phe-Arg-Trp-Cys)-NH2 (peptide)
peptide: CEHXRWC
modifications: not fully specified; hydantoin ring from Arg 1, C(O) and the amino group of Gly 2; D-Phe 6; disulfide Cys 3-Cys 9 (cyclo); C-terminal amide
notes: also called Compound C
B6: Hydantoin(C(O)-(Nle-Gly))-cyclo(Cys-Glu-His-D-Phe-Arg-Trp-Cys)-NH2 (peptide)
peptide: CEHXRWC
modifications: not fully specified; hydantoin ring from Nle 1, C(O) and the amino group of Gly 2; Nle 1; D-Phe 6; disulfide Cys 3-Cys 9 (cyclo); C-terminal amide
notes: residue 6 here is D-Phe; also called Compound F

These binders were tested against T1, human melanocortin-1 receptor (human, UniProt Q01726 1-317) (assay: competition with [125I]-NDP-alpha-MSH, CHO-K1 cell membranes).
T1 construct: whole, on cells; Ki assays used cellular membranes of the CHO-K1 cells; cAMP assays used the whole cells; also called hMC1; hMC-R receptor subtype 1
T1 sequence (Q01726 whole entry): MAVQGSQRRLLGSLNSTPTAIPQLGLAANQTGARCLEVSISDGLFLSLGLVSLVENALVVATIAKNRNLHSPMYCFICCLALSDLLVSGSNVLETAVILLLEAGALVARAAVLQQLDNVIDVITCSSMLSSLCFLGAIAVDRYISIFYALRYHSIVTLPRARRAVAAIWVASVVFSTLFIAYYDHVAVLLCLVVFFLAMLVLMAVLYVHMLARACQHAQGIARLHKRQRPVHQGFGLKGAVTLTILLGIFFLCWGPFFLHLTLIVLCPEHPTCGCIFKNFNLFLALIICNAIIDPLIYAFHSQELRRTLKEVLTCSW
Experimental: (§1) Competitive inhibition of [¹²⁵I](Tyr²)-(Nle⁴-D-Phe⁷)α-MSH ([¹²⁵I]-NDP-α-MSH, Amersham Biosciences®) binding was carried out in polypropylene 96 well plates. […] Bound [¹²⁵I]-NDP-α-MSH ligand was separated from free [¹²⁵I]-NDP-α-MSH by filtration through GF/C glass fiber filter plates (Unifilter®; Packard) presoaked with 0.1% (w/v) polyethylenimine (PEI), using a Packard Filtermate® harvester. Filters were washed three times with 50 mM Tris-HCl at pH 7.4 at a temperature of approximately 0-4° C. and then assayed for radioactivity using a Packard Topcount® scintillation counter. Binding data were analyzed by computer-assisted non-linear regression analysis (XL fit; IDBS).
With B1 the Ki was 5.68 nM. For B2, the Ki was 11.9 nM. Work on B3 yielded a Ki of 15.6 nM. In the case of B4, the Ki is reported as 53.4 nM. B5 was tested, and the Ki was 8.59 nM. With B6 the Ki was 14.3 nM.

The binders below were run against T2, human melanocortin-3 receptor (human, UniProt P41968 1-323) in the same assay as above.
T2 construct: whole, on cells; Ki assays used cellular membranes of the CHO-K1 cells; cAMP assays used the whole cells; also called hMC3; hMC-R receptor subtype 3
T2 sequence (P41968 whole entry): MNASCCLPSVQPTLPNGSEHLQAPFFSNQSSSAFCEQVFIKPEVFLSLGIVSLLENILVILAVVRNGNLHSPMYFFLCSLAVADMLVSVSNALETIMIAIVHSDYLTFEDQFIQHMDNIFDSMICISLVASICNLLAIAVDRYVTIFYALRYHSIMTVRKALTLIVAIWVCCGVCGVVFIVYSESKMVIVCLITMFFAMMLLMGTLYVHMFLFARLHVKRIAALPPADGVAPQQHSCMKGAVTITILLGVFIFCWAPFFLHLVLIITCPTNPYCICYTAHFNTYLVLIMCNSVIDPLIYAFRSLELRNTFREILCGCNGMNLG
Experimental: as §1
B3 was tested, and the Ki was 305 nM.

What follows are binders tested against T3, human melanocortin-4 receptor (human, UniProt P32245 1-332) in the same assay as above.
T3 construct: whole, on cells; Ki assays used cellular membranes of the CHO-K1 cells; cAMP assays used the whole cells; also called hMC4; hMC-R receptor subtype 4
T3 sequence (P32245 whole entry): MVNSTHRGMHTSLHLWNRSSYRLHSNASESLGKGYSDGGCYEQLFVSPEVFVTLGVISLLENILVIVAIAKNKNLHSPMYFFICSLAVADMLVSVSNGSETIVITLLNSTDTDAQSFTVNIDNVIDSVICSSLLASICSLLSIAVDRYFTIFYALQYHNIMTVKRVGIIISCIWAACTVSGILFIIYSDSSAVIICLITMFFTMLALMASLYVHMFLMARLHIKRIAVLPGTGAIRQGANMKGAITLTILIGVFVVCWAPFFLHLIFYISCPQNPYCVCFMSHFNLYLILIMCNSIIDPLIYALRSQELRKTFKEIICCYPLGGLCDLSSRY
Experimental: as §1
B3 was tested, and the Ki was 8.92 nM. B4 gave a Ki of 41.6 nM.

These binders were tested against T4, human melanocortin-5 receptor (human, UniProt P33032 1-325) in the same assay as above.
T4 construct: whole, on cells; Ki assays used cellular membranes of the CHO-K1 cells; cAMP assays used the whole cells; also called hMC5; hMC-R receptor subtype 5
T4 sequence (P33032 whole entry): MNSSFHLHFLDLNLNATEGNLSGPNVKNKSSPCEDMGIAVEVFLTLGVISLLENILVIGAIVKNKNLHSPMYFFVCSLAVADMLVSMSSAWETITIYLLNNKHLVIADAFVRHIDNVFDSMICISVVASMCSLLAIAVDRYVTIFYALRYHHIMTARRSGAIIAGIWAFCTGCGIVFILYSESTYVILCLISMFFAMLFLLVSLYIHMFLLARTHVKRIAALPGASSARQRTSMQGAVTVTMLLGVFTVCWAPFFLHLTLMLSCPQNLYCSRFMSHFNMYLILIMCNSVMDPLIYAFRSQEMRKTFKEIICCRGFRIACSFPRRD
Experimental: as §1
B1 was tested, and the Ki was 4220 nM. Work on B2 yielded a Ki of 73.9 nM. Work on B3 yielded a Ki of 3070 nM. B5 showed a Ki of 7760 nM. Work on B6 yielded a Ki of 67.8 nM.
